Results reported in US20060153834A1.
Values belong to the molecule of their own block, whether it stands above or below them. No end group written: not given here.

What was measured:
14C-HIgG (human) [1] = assay: secondary screening, batch, HIgG competitive (spiked in MEM)
[2] = molecular target: 14C-Fc fragment of HIgG (human); assay: secondary screening, batch, Fc fragment non-competitive (PBS)
14C-HIgG (human) [3] = assay: secondary screening, batch, HIgG non-competitive (PBS), Micro-BCA
[4] = molecular target: 14C-Fc fragment of HIgG (human); assay: secondary screening, batch, Fc fragment competitive (spiked in MEM)
14C-HIgG (human) [5] = assay: second round of secondary screening, batch, competitive (MEM), 14C counting
Human IgG (HIgG) (human) [6] = assay: batch adsorption isotherm, PBS pH 7.4, peptide resin 0.1 meq/g, direct Langmuir fit
Human IgG (HIgG) (human) [7] = assay: batch adsorption isotherm, PBS pH 7.4, peptide resin 0.1 meq/g, double reciprocal curve
14C-HIgG (human) [8] = assay: second round of secondary screening, batch, non-competitive (PBS)
Human IgG (HIgG) (human) [9] = assay: ratio of ligand to protein at maximum capacity, Ac-HWRGWV resin at 0.080 mmol/g
Human IgG (HIgG) (human) [10] = assay: batch adsorption isotherm, PBS pH 7.4, Ac-HWRGWV resin at 0.080 mmol/g, Langmuir fit
Human IgG (HIgG) (human) [11] = assay: ratio of ligand to protein at maximum capacity, HWRGWV resin at 0.10 mmol/g
Human IgG (HIgG) (human) [12] = assay: ratio of ligand to protein at maximum capacity, HWRGWV resin at 0.22 mmol/g
Human IgG (HIgG) (human) [13] = assay: ratio of ligand to protein at maximum capacity, HWRGWV resin at 0.55 mmol/g
Human IgG (HIgG) (human) [14] = assay: ratio of ligand to protein at maximum capacity, HWRGWV resin at 0.022 mmol/g
Human IgG (HIgG) (human) [15] = assay: ratio of ligand to protein at maximum capacity, HWRGWV resin at 0.040 mmol/g
Human IgG (HIgG) (human) [16] = assay: ratio of ligand to protein at maximum capacity, HWRGWV resin at 0.080 mmol/g
Human IgG (HIgG) (human) [17] = assay: batch adsorption isotherm, PBS pH 7.4, HWRGWV resin at 0.10 mmol/g, Langmuir fit
Human IgG (HIgG) (human) [18] = assay: batch adsorption isotherm, PBS pH 7.4, HWRGWV resin at 0.22 mmol/g, Langmuir fit
Human IgG (HIgG) (human) [19] = assay: batch adsorption isotherm, PBS pH 7.4, HWRGWV resin at 0.55 mmol/g, Langmuir fit
Human IgG (HIgG) (human) [20] = assay: batch adsorption isotherm, PBS pH 7.4, HWRGWV resin at 0.022 mmol/g, Langmuir fit
Human IgG (HIgG) (human) [21] = assay: batch adsorption isotherm, PBS pH 7.4, HWRGWV resin at 0.040 mmol/g, Langmuir fit
Human IgG (HIgG) (human) [22] = assay: batch adsorption isotherm, PBS pH 7.4, HWRGWV resin at 0.080 mmol/g, Langmuir fit

Bound % (14C-HIgG (human) [1]): 4.51%
Bound % [2]: 21.5%
Bound % (14C-HIgG (human) [3]): 11.2%
Bound % [4]: 24.5%
Molecule: HRPKIF (peptide)

Bound (14C-HIgG (human) [5]): 27%
Unbound (14C-HIgG (human) [5]): 73%
B1: HPWYVT (peptide)
peptide: HPWYVTA-{Toyopearl AF‑Amino‑650 resin}

Bound % (14C-HIgG (human) [1]): 41.9%
Bound % [2]: 40.4%
Bound % (14C-HIgG (human) [3]): 91.3%
Bound % [4]: 8.85%
Kd (Human IgG (HIgG) (human) [6]): 0.297 µM
qm (maximum capacity) (Human IgG (HIgG) (human) [6]): 113 mg/g
Kd (Human IgG (HIgG) (human) [7]): 0.215 µM
qm (maximum capacity) (Human IgG (HIgG) (human) [7]): 95.1 mg/g
B2: YYWLHH (peptide)
peptide: YYWLHHA-{Toyopearl AF‑Amino‑650 resin}

Bound (14C-HIgG (human) [5]): 8.64%
Unbound (14C-HIgG (human) [5]): 91.4%
B3: HYIDAK (peptide)
peptide: HYIDAKA-{Toyopearl AF‑Amino‑650 resin}

Bound (14C-HIgG (human) [8]): 6.08%
Unbound (14C-HIgG (human) [8]): 93.9%
Bound (14C-HIgG (human) [5]): 7.34%
Unbound (14C-HIgG (human) [5]): 92.7%
B4: KGEA (peptide)
peptide: KGEA-{Toyopearl AF‑Amino‑650 resin}

Bound (14C-HIgG (human) [8]): 7.9%
Unbound (14C-HIgG (human) [8]): 92.1%
Bound (14C-HIgG (human) [5]): 12.9%
Unbound (14C-HIgG (human) [5]): 87.1%
B5: HIWA (peptide)
peptide: HIWA-{Toyopearl AF‑Amino‑650 resin}

Bound (14C-HIgG (human) [5]): 15.1%
Unbound (14C-HIgG (human) [5]): 85%
B6: HVWQLK (peptide)
peptide: HVWQLKA-{Toyopearl AF‑Amino‑650 resin}

Bound (14C-HIgG (human) [8]): 55.5%
Unbound (14C-HIgG (human) [8]): 44.5%
Bound (14C-HIgG (human) [5]): 43.3%
Unbound (14C-HIgG (human) [5]): 56.7%
Kd (Human IgG (HIgG) (human) [6]): 20.3 µM
qm (maximum capacity) (Human IgG (HIgG) (human) [6]): 129 mg/g
B7: HVHYYW (peptide)
peptide: HVHYYWA-{Toyopearl AF‑Amino‑650 resin}

Bound (14C-HIgG (human) [8]): 9.03%
Unbound (14C-HIgG (human) [8]): 91%
Bound (14C-HIgG (human) [5]): 19.9%
Unbound (14C-HIgG (human) [5]): 80.1%
B8: HWIDPL (peptide)
peptide: HWIDPLA-{Toyopearl AF‑Amino‑650 resin}

Bound % (14C-HIgG (human) [1]): 5.5%
Bound % [2]: 18%
Bound % (14C-HIgG (human) [3]): 9.16%
Bound % [4]: 3.2%
B9: HEILYW (peptide)
peptide: HEILYWA-{Toyopearl AF‑Amino‑650 resin}

Bound % (14C-HIgG (human) [1]): 14.5%
Bound % [2]: 19.8%
Bound % (14C-HIgG (human) [3]): 17.9%
Bound % [4]: 4.91%
B10: HYGLGW (peptide)
peptide: HYGLGWA-{Toyopearl AF‑Amino‑650 resin}

Bound % (14C-HIgG (human) [1]): 6.01%
Bound % [2]: 12.9%
Bound % (14C-HIgG (human) [3]): 10.7%
Bound % [4]: 4.28%
B11: HFDKGF (peptide)
peptide: HFDKGFA-{Toyopearl AF‑Amino‑650 resin}

Bound (14C-HIgG (human) [5]): 12.2%
Unbound (14C-HIgG (human) [5]): 87.8%
B12: KLQWVH (peptide)
peptide: KLQWVHA-{Toyopearl AF‑Amino‑650 resin}

Bound % (14C-HIgG (human) [1]): 5.58%
Bound % [2]: 10.2%
Bound % (14C-HIgG (human) [3]): 10.5%
Bound % [4]: 25.6%
B13: HANGFL (peptide)
peptide: HANGFLA-{Toyopearl AF‑Amino‑650 resin}

peptide/protein, mol/mol (Human IgG (HIgG) (human) [9]): 92 mol/mol
Kd (Human IgG (HIgG) (human) [10]): 3.8 µM
qm (maximum capacity) (Human IgG (HIgG) (human) [10]): 131 mg/g
B14: Ac-HWRGWV (peptide)
peptide: Ac-HWRGWVA-{Toyopearl AF‑Amino‑650 resin}

Bound % (14C-HIgG (human) [1]): 24.4%
Bound % [2]: 82.5%
Bound % (14C-HIgG (human) [3]): 62.2%
Bound % [4]: 8.13%
peptide/protein, mol/mol (Human IgG (HIgG) (human) [11]): 112 mol/mol
peptide/protein, mol/mol (Human IgG (HIgG) (human) [12]): 241 mol/mol
peptide/protein, mol/mol (Human IgG (HIgG) (human) [13]): 600 mol/mol
peptide/protein, mol/mol (Human IgG (HIgG) (human) [14]): 21 mol/mol
peptide/protein, mol/mol (Human IgG (HIgG) (human) [15]): 41 mol/mol
peptide/protein, mol/mol (Human IgG (HIgG) (human) [16]): 91 mol/mol
Kd (Human IgG (HIgG) (human) [17]): 10.4 µM
qm (maximum capacity) (Human IgG (HIgG) (human) [17]): 134 mg/g
Kd (Human IgG (HIgG) (human) [18]): 2.58 µM
qm (maximum capacity) (Human IgG (HIgG) (human) [18]): 137 mg/g
Kd (Human IgG (HIgG) (human) [19]): 0.947 µM
qm (maximum capacity) (Human IgG (HIgG) (human) [19]): 138 mg/g
Kd (Human IgG (HIgG) (human) [20]): 30 µM
qm (maximum capacity) (Human IgG (HIgG) (human) [20]): 158 mg/g
Kd (Human IgG (HIgG) (human) [21]): 20.3 µM
qm (maximum capacity) (Human IgG (HIgG) (human) [21]): 148 mg/g
Kd (Human IgG (HIgG) (human) [22]): 7.25 µM
qm (maximum capacity) (Human IgG (HIgG) (human) [22]): 132 mg/g
Kd (Human IgG (HIgG) (human) [6]): 1.33 µM
qm (maximum capacity) (Human IgG (HIgG) (human) [6]): 50 mg/g
Kd (Human IgG (HIgG) (human) [7]): 2.8 µM
qm (maximum capacity) (Human IgG (HIgG) (human) [7]): 54.8 mg/g
B15: HWRGWV (peptide)
peptide: HWRGWVA-{Toyopearl AF‑Amino‑650 resin}

Bound (14C-HIgG (human) [8]): 69.3%
Unbound (14C-HIgG (human) [8]): 30.7%
Bound (14C-HIgG (human) [5]): 43.3%
Unbound (14C-HIgG (human) [5]): 56.7%
Kd (Human IgG (HIgG) (human) [6]): 11.4 µM
qm (maximum capacity) (Human IgG (HIgG) (human) [6]): 127 mg/g
B16: HYFKFD (peptide)
peptide: HYFKFDA-{Toyopearl AF‑Amino‑650 resin}

Bound (14C-HIgG (human) [5]): 10%
Unbound (14C-HIgG (human) [5]): 90%
B17: HIQLDG (peptide)
peptide: HIQLDGA-{Toyopearl AF‑Amino‑650 resin}

Bound % (14C-HIgG (human) [1]): 10.9%
Bound % [2]: 88.2%
Bound % (14C-HIgG (human) [3]): 66.2%
Bound % [4]: 16.5%
Kd (Human IgG (HIgG) (human) [6]): 1.39 µM
qm (maximum capacity) (Human IgG (HIgG) (human) [6]): 62.4 mg/g
Kd (Human IgG (HIgG) (human) [7]): 2.47 µM
qm (maximum capacity) (Human IgG (HIgG) (human) [7]): 81.9 mg/g
B18: WHWRKR (peptide)
peptide: WHWRKRA-{Toyopearl AF‑Amino‑650 resin}

Bound (14C-HIgG (human) [8]): 14.4%
Unbound (14C-HIgG (human) [8]): 85.6%
Bound (14C-HIgG (human) [5]): 19.9%
Unbound (14C-HIgG (human) [5]): 80.1%
B19: HWGPTK (peptide)
peptide: HWGPTKA-{Toyopearl AF‑Amino‑650 resin}

Bound (14C-HIgG (human) [5]): 17.3%
Unbound (14C-HIgG (human) [5]): 82.7%
B20: KRGFYY (peptide)
peptide: KRGFYYA-{Toyopearl AF‑Amino‑650 resin}

Bound (14C-HIgG (human) [5]): 40.9%
Unbound (14C-HIgG (human) [5]): 59.1%
Kd (Human IgG (HIgG) (human) [6]): 26.4 µM
qm (maximum capacity) (Human IgG (HIgG) (human) [6]): 158 mg/g
B21: HFRRHL (peptide)
peptide: HFRRHLA-{Toyopearl AF‑Amino‑650 resin}

Bound (14C-HIgG (human) [5]): 23.5%
Unbound (14C-HIgG (human) [5]): 76.5%
B22: HLKWYA (peptide)
peptide: HLKWYAA-{Toyopearl AF‑Amino‑650 resin}

Bound (14C-HIgG (human) [5]): 8.55%
Unbound (14C-HIgG (human) [5]): 91.5%
B23: HDVFHT (peptide)
peptide: HDVFHTA-{Toyopearl AF‑Amino‑650 resin}
